Assays:
[1] = target: HA-tagged C96Y mutant insulin 2 (UniProt P01326)
[2] = target: HA-tagged wild-type insulin 2 (UniProt P01326)

## HRD1 (from plasmid HRD1-pCMVSPORT6)
[1]
  ubiquitination of insulin-2 (IP with anti-HA, immunoblot with anti-Flag for Flag-ubiquitin): did increase that of C96Y insulin-2
[2]
  ubiquitination of insulin-2 (IP with anti-HA, immunoblot with anti-Flag for Flag-ubiquitin): HRD1 expression did not increase the ubiquitination of wild-type insulin-2

From patent US20070202544
